17 substances from patent US20220177587A1, “METHODS AND USES OF VARIANT CD80 FUSION PROTEINS AND RELATED CONSTRUCTS” (Alpine Immune Sciences, Inc., priority 2018, published 2022) can be followed below.

For assay [1], the target named is CD28 (human) (UniProt P10747). Description: flow cytometry, Jurkat cells (CD28). (Flow cytometry measures light scatter and fluorescence of single cells or particles in a stream.)
Assay [2] deals with PD-L1 (human) (UniProt Q9NZQ7). As to the kind of experiment: flow cytometry, CHO cells stably expressing PD-L1.
Target sequence in this assay (Q9NZQ7 19-290): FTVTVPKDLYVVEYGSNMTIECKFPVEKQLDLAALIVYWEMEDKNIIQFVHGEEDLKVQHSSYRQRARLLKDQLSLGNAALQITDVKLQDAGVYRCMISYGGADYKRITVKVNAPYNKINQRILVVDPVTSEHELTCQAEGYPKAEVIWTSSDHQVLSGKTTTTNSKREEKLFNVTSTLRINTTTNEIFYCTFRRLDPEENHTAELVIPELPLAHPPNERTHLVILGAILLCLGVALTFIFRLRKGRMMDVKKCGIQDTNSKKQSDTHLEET
The target of assay [3] is human CTLA-4 (human) (UniProt P16410). Description: flow cytometry, CHO cells stably expressing CTLA4.
Target sequence in this assay (P16410 36-223): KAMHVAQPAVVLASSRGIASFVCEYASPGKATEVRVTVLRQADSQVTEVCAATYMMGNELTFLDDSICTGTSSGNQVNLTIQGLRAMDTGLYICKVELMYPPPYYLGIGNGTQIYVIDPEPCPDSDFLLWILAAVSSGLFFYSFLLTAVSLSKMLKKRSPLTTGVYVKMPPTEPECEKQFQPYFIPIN
Assay [4] concerns the target CD28 (human) (UniProt P10747). As to the kind of experiment: flow cytometry, Expi293F cells transfected with CD28.
Assay [5] has as its target PD-L1 (human) (UniProt Q9NZQ7). Description: flow cytometry, Expi293F cells transfected with PD-L1.
Assay [6] addresses human CTLA-4 (human) (UniProt P16410). As to the kind of experiment: flow cytometry, Expi293F cells transfected with CTLA-4.
The target in assay [7] is PD-L1 (human) (UniProt Q9NZQ7). Description: flow cytometry, CHO cells expressing PD-L1.
Target sequence in this assay (Q9NZQ7 19-290): as the sequence (Q9NZQ7 19-290) above
For assay [8], the target named is human CTLA-4 (human) (UniProt P16410). As to the kind of experiment: flow cytometry, CHO cells expressing CTLA4.
Target sequence in this assay (P16410 36-223): as the sequence (P16410 36-223) above
Assay [9] has the same target. As to the kind of experiment: flow cytometry, CHO cells stably expressing CTLA4. The source holds these as a separate data set.
Target sequence in this assay (P16410 36-223): as above
Assay [10] addresses human CTLA-4 (huCTLA4), on stably transduced CHO cells (human) (UniProt P16410). As to the kind of experiment: flow cytometry on CHO cells stably expressing huCTLA4, 33.3 nM Fc fusion, PE anti-human Fc.
In assay [11] the target is human CTLA-4 (human) (UniProt P16410). As to the kind of experiment: flow cytometry, CHO cells stably expressing CTLA4. This is another data set of the same source.
Target sequence in this assay (P16410 36-223): as above
In assay [12] the target is human PD-L1 (huPD-L1), on stably transduced CHO cells (human) (UniProt Q9NZQ7). As to the kind of experiment: flow cytometry on CHO cells stably expressing huPD-L1, 33.3 nM Fc fusion, PE anti-human Fc.
Assay [13] concerns the target CD28, endogenously expressed on Jurkat/IL2 reporter cells (human) (UniProt P10747). Description: flow cytometry on Jurkat/IL2 reporter cells (endogenous CD28), 33.3 nM Fc fusion, PE anti-human Fc.
Assay [14] concerns the target PD-L1 (human) (UniProt Q9NZQ7). Description: flow cytometry, CHO cells stably expressing PD-L1. This is another data set of the same source.
Target sequence in this assay (Q9NZQ7 19-290): as the sequence (Q9NZQ7 19-290) above
Assay [15] concerns the target PD-L1 (human) (UniProt Q9NZQ7). As to the kind of experiment: flow cytometry, CHO cells stably expressing PD-L1. The source holds these as a separate data set.
Target sequence in this assay (Q9NZQ7 19-290): as above
For assay [16], the target named is CD28 (human) (UniProt P10747). As to the kind of experiment: flow cytometry, Jurkat cells (CD28). This is another data set of the same source.
Assay [17] deals with CD28 (human) (UniProt P10747). Description: flow cytometry, Jurkat cells (CD28). This is another data set of the same source.
The target in assay [18] is PD-L1 (human) (UniProt Q9NZQ7).
Target sequence in this assay (Q9NZQ7 19-290): as above
Assay [19] has as its target CD28 (human) (UniProt P10747).
Assay [20] deals with human CTLA-4 (human) (UniProt P16410). Description: flow cytometry, CHO cells expressing huCTLA4.
Target sequence in this assay (P16410 36-223): as the sequence (P16410 36-223) above
Assay [21] deals with CD28 (human) (UniProt P10747). Description: flow cytometry, Jurkat/IL2 reporter cells (endogenous CD28).

CD80 WT IgV-Fc (Fc fusion), sequence (chain): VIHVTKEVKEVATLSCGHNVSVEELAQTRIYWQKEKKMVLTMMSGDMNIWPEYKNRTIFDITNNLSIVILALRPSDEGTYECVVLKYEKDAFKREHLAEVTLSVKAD
human CTLA-4 (huCTLA4), on stably transduced CHO cells (human), sequence (P16410 36-223): as the sequence (P16410 36-223) above
human PD-L1 (huPD-L1), on stably transduced CHO cells (human), sequence (Q9NZQ7 19-290): as the sequence (Q9NZQ7 19-290) above

Regarding “CD80 IgV-Fc H18Y/E35D/V68M/L85M/R94Q (Fc fusion)”, the Fold change to WT CD80 with CD28 (human) [1] stood at 23.3 fold; with PD-L1 (human) [2], 131 fold. The MFI at 33.3 nM in the assay with CD28 (human) [1] turned out to be 962 MFI; in the assay with PD-L1 (human) [2], 9280 MFI; in the assay with human CTLA-4 (human) [3], 22000 MFI.
On to “CD80 K36E/I67T/L70Q/A91G/I118V/T120S/T130A/N152T ECD-Fc (Fc fusion)”, for which the MFI with CD28 (human) [4] stood at 8 MFI.
On to “CD80 K54M/L70Q/A91G/Y164H ECD-Fc (SEQ ID NO 1399) (Fc fusion)”, for which the MFI with PD-L1 (human) [5] amounted to 5 MFI; with human CTLA-4 (human) [6], 131 MFI; with CD28 (human) [4], 68 MFI. In addition, the parental ratio with PD-L1 (human) [5] was determined as 0.08; with human CTLA-4 (human) [6], 0.63; with CD28 (human) [4], 0.71.
With “CD80 L65H/D90G/T110A/F116L ECD-Fc (Fc fusion)”, the MFI with human CTLA-4 (human) [6] worked out at 121 MFI; in the assay with CD28 (human) [4], 33 MFI.
“CD80 M38T/L70Q/E77G/A91G/I118V/T120S/T130A/N152T ECD-Fc (Fc fusion)”: in the assay with CD28 (human) [4], the MFI worked out at 61 MFI.
Still for that read-out and setting: as for “CD80 M38V/T41D/M43I/W50G/D76G/V83A/K89E/I118V/T120S/I126V/T130A ECD-Fc (Fc fusion)”, the figure is 5 MFI.
In the case of “CD80 R29H/E52G/D90N/I118V/T120S/T130A ECD-Fc (Fc fusion)”, the MFI with human CTLA-4 (human) [6] came to 141 MFI; with CD28 (human) [4] it was 66 MFI.
On to “CD80 R29H/E52G/L70R/E88G/A91G/T130A ECD-Fc (Fc fusion)”, for which the figures for the MFI with PD-L1 (human) [5], with human CTLA-4 (human) [6] and with CD28 (human) [4] were 5 MFI, 119 MFI and 100 MFI, respectively. In addition, the values for the parental ratio with PD-L1 (human) [5] and with human CTLA-4 (human) [6] were 0.08 and 0.57, respectively.
Turning to “CD80 T28S/L70Q/A91G/E95K/I118V/T120S/I126V/T130A/K169E ECD-Fc (Fc fusion)”, the MFI with PD-L1 (human) [5] turned out to be 6 MFI; in the assay with human CTLA-4 (human) [6], 65 MFI; in the assay with CD28 (human) [4] it was 32 MFI. In addition, the parental ratio with PD-L1 (human) [5] turned out to be 0.08; with human CTLA-4 (human) [6] it was 0.31; with CD28 (human) [4], 0.34.
Consider “CD80 V20L/L70Q/A91S/I118V/T120S/T130A ECD-Fc (Fc fusion)”, for which the results for the MFI with PD-L1 (human) [5], in the assay with human CTLA-4 (human) [6] and with CD28 (human) [4] were 9 MFI, 200 MFI and 105 MFI, respectively. Also, the parental ratio worked out at 0.13 with PD-L1 (human) [5] and 0.96 with human CTLA-4 (human) [6].
On to CD80 WT IgV-Fc (Fc fusion), for which the MFI at 33.3 nM stood at 44 MFI in the assay with PD-L1 (human) [7]; 26400 MFI with human CTLA-4 (human) [8]; 1030 MFI with human CTLA-4 (human) [9]; 1920 MFI in [10]; 1360 MFI with human CTLA-4 (human) [11]; 41.2 MFI with CD28 (human) [1]. Besides, the MFI at 33.3 nM in assay [12] was 70.3 MFI; with PD-L1 (human) [2] it was 70.9 MFI; in assay [13], 66 MFI; in the assay with PD-L1 (human) [14], 43.6 MFI; with PD-L1 (human) [15], 83 MFI; with human CTLA-4 (human) [3], 1040 MFI. Moreover, the results for the MFI at 33.3 nM in the assay with CD28 (human) [16], in the assay with CD28 (human) [16] (record 2) and with CD28 (human) [17] were 95 MFI, 41 MFI and 43.9 MFI, respectively.
The substance WT CD80 IgV-Fc (Fc fusion) yielded a Jurkat/IL2 reporter RLU at 50 nM, K562/OKT3/PD-L1 aAPC with PD-L1 (human) [18] of 663 RLU. In the assay with CD28 (human) [19], this substance returned a Jurkat/IL2 reporter RLU at 50 nM, K562/OKT3/PD-L1 aAPC of 663 RLU and a Jurkat/IL2 reporter RLU at 50 nM, K562/OKT3 aAPC without PD-L1 of 1250 RLU.
Regarding “variant CD80 IgV-Fc A26E/E35D/M43I/M47L/L85Q/K86E/R94W (Fc fusion)”, the MFI at 33.3 nM was 2950 MFI with human CTLA-4 (human) [20] and 314 MFI in the assay with CD28 (human) [21].
Take “variant CD80 IgV-Fc E35D/D46V/M47I/A71G/F92V (Fc fusion)”: the MFI at 33.3 nM with CD28 (human) [21] is 7540 MFI.
“variant CD80 IgV-Fc E35D/M47L/A71G/L97Q (Fc fusion)”: the MFI at 33.3 nM with human CTLA-4 (human) [20] amounted to 226000 MFI; in the assay with CD28 (human) [21] it was 300 MFI.
For “variant CD80 IgV-Fc Q33R/E35D/D46E/M47I (Fc fusion)”, the values for the MFI at 33.3 nM with human CTLA-4 (human) [20] and in the assay with CD28 (human) [21] were 3560 MFI and 303 MFI, respectively.
For the substance “variant CD80 IgV-Fc S15P/Q33L/E35D/M47L/L85Q (Fc fusion)”, the MFI at 33.3 nM in the assay with CD28 (human) [21] amounted to 266 MFI.
